The domain aggregation screens of Martell et al. (2025)

assay: soluble fraction after stress (log2 fold change); higher = more stays soluble; pooled small domains, quantitative proteomics; details: stress: 50 degC
In short: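 The measure of aggregation propensity here is the base-two logarithm of the fold change in the soluble amount of each protein after stress. A higher value means more of that protein stays in solution. Stress was applied at 50°C to pooled libraries of small protein domains, read out by high-throughput quantitative proteomics.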

Sequence | soluble fraction (log2)
HMSDTLPRLLWNFQMAKRLDEMNGAEKRRYQLVLIHPQASEKERDYASSFAHQARMLGIEVAIRDS | -0.345
HMGPSEVTLDNFVGKNYTDVVNDTSYQFTFKKEEKSDQTHAAGIIIAQSPKKGIKVKSNSTVTLTVSTG | -0.0626
HMSPDLNEVEEKVFRALNGVESMHVNKLGIELNLPVSELFFTLLELEMKNVVKALPGGMYKL | -1.95
HMSFVDFYGLFTTELQRLAELPVTADELIKNTGLHKSQLTDWLKRAEEDGVVKKLNRPVRYQVEKK | -0.987
HMLRQRVFRIIQNNINSKNYFVYTKQILAELAGISMRSLNRTLSELQNDRLIIVDSGTIRLFT | -1.49
HMNEDDQLLKVLLAEPLRLEELYNLDLKPQGPYNLQTWIMVHLTELERDGLIARFPDGRYGPAR | -1.36
HMVLVEEYDTKDSASTFKIGYYARYNTKYGTPSKVGSYADNQRSGIWTFYTDSLKTYFKYNYSTGLIL | 0.115
HMRNSSLQTDLELRAYVIDGLNHFWTPEEIAGRWSLAHPDRPVSFATIYRHIKRKLLPGIEPKTHLRRRGK | -2.55
HMFIVTDQMQRVLDYITEKEKATNNDLEELLGVKSTRIYTITRKLIQHNLIIPVGKGKNKYYIL | -0.79
HMSEQVQLQAQVEDDLIGKRLDQVVAQLFPDYSRSRLQGWIKDGSLTVDGESRRPRDKMMGGEVVRVEATL | 0.0984
HMTVKVPDLRGKTLAEMQRILDDAGLKYEINDSTFSRTAIPGTVREVIPAPGSEVKLGRILFIAINGF | -0.914
HMNDGEIAAPVSGTLQSFKVEDGQTVSEGDLVAVMEAMKMETQILATKGGTIRLLVKEGDYLQAGHALMTI | -0.525
HMLTGDVDRYKDFFIALEKTSPVPIGFEKIIGGAHGYYHLEDKRIAIDEGMSELQTLKTAIHEIAHAKLHD | -0.14
HMGASSLVGRSARVLQAVTDSDGRIKLAGETWSARLAAGATSTVGPGEEVRVIAIHGATAIVAPV | 0.0322
HMQESTILPAQKSAISSLATSAGFSSENLKRYLLQNYGVDLKDLTRSQGAEVIKAFQSGNVSKP | 0.0882
HMGQDLEAFLLKAVGQLDQGDGVTLDALLKVAVSNGGFVREVAEAKLDDMLDAGTLDEPRFGWFRVGAT | -0.742
HMRYLMPDLVNRRYEPVRSLLEARGIRFGNVIFEPYEGLPPGIVLRQDPPAGHPLPRRRTVSLVVSGPGGR | -1.88
HMKQDFVYNGFVEAKGDDLMVQINYKGETYYVTEGESFGGFTVKSANKDKVVLSGQGGAETVLEFR | -0.106
HMTKGFSIQDISLSKSTMTFLQQNKITDLASLLSMSKSQIEGMKGFKPKMIQEIEKNLDKVGLVLAQD | 0.176

Sequence | soluble fraction (log2)
HMVQISNTDDLYPIVQRIVDANPQSVEDYKNGKAKALGFLVGQMMKETKGKANPSMVNDLIIKAIEE | 0.123
HMNNTIKFSVDENNSGKRLDVYLTENINHLTRSFLKKLIEKEQVKLNKKVLTSPATKVKTKDQITINIIE | 0.172
HMRGPDLSKDFHEYISSQWMFFGRNAYQIAEQINKDTQLMSKYGKTTPSGVHYHIKQIQQEMEN | -0.398
HMVIVGGDVIVHYVDTEGKKISDDVVKSGNVGEDYSTDQKTILGYRFKEVQGNTSGKFTDKTQVVTYIYT | 0.404
HMESRRVTLLLPYDKAGIADTLRREAAVLSLEYGEDGVTVEAVVKPELWGLVREYVQNDNPK | 0.166
HMPPGQIVNEALQRAGNSTPTGTAISAQDDIKLYTSALAELATQGDTSSASVAKLREALQTAQVAFYNAV | 0.0769
HMLTKGDRQSIRDSIIYMVGNAPRTLDYIVAESRYSEEDVIEAVRSLLSSHILSIDDSDMISLTRK | -0.448
HMGRPTLEQLLDRAQAMGVPRERYAAYADRRWGRGWRVNPHGRGRAWDELDRYRNDPAGYLDKIEVELNQL | -0.101
HMFPDLSPEQQRIVDVLTKSNDLQLNQLSVKTGIPIGDITSILFQMEMMGVVKPMAGGNYHLL | -1.36
HMEVPFRNAAIFKTRSGDYAIRASYDGVDLGIKPIEKSTARTYFQLTDVKDKESFLNMTARNQYESEIAGI | -0.00166
HMLERPLFTPEQYGRFRGKEARIRLSNPVEGRKTLTGSIVEATEERIVVFVEEEEREVTVPFQWIKSGNL | -0.435
HMGVLSPRQSQILALVAQGLGNREIAERLHIAPTTARDHVQAIMRRLNVNSRAAAAVMGVKLGLI | -0.625
HMKRITAVISQKKGRDYYYIIVSYYLSNGKRVQRWIKTEFPINGNNKRKLEQKRIEVLQEWQDKLV | -1.3
HMWVETITTKAGITKYKFQERYTDTYSGKTKRVSVTYTSNSRQAYKLAQAELQKKIDLATNTD | -0.849
HMGIVTMPGQGSKMRFDFDATGDLPSSTSWRGMFAYANNTKRAYVSTGTTMGGYNGWRQLIAMDEYGNYQT | -0.0345
HMAVNQEFKNTINRIKYEYSLNQSQIADRLGVKKTYLSDMINGRVPYNETMNKKVNDVFPLPP | 0.11
HMQRFIHITVSDVHQATRLLEEEMQLTNYSVAENNAIKIFEFTYEPQEINHLFGKNGIEVSSLFIGS | -0.134
HMSKKQEQALQSREKLLDAATALFAEHGYRDTSVQAIGEKAGVSRGSIFWHFGSKEGLLWAVVERAFTA | 0.265
